Here are results for one substance from EP3370777B1.

The experiment deals with His-tagged eukaryotic Elongation Factor 2 (eEF2) expressed in S. cerevisiae. Nature of the experiment: cell-based or functional assay.

“recombinant Exotoxin A (SEQ ID NO: 4), expressed in E. coli NiCo21(DE3) as His-tagged SUMO fusion, SUMO-tag removed (enzyme)”: the ADP-ribosylation activity EC50 [µg/µl] (Example 1, soluble fraction) stood at 0.6 µg/µL and the ADP-ribosylation activity EC50 [µg/µl] (Example 2, method of the invention) was 0.52 µg/µL.
